For orientation: IC50 means the concentration at which inhibition is half-maximal. High values mean weaker potency, low ones greater potency.

The values that follow come from patent publication US20050026838A1.

In this experiment the target is [125I]-FGF-1 binding sites on membranes prepared from adult rat cortex. Nature of the experiment: displacement of [125I]-FGF-1 by unlabelled FGF, membranes prepared from adult rat cortex. A general note: In a radioligand displacement assay an active substance lowers the binding of a labelled ligand.

In turn, “FGF-2 (basic FGF) (from UniProt P09038 143-288) (ligand)” came in with a half-inhibitory concentration (IC50) of 0.2 nM.

B1: Fibroblast Growth Factor 13 (recombinant human FGF-13, expressed in Escherichia coli) (ligand)
chain: MQGENHPSPNFNQYVRDQGAMTDQLSRRQIREYQLYSRTSGKHVQVTGRRISATAEDGNKFAKLIVETDTFGSRVRIKGAESEKYICMNKRGKLIGKPSGKSKDCVFTEIVLENNYTAFQNARHEGWFMAFTRQGRPRQASRSRQNQREAHFIKRLYQGQLPFPNHAEKQKQFEFVGSAPTRRTKRTRRPQPLT
As for B1, the concentration for half-maximal inhibition (IC50) was found to be 1 nM.
